According to the supplement of paper PMC10065799, “High-throughput profiling of sequence recognition by tyrosine kinases and SH2 domains using bacterial peptide display” (eLife, 2023):

Assays:
AncSZ = experiment: phosphorylation enrichment, bacterial display (enrichment ratio); higher = better substrate or ligand; peptides without Tyr show the background
EPHB1 = EPHB1 (UniProt P54762); experiment: as above
EPHB2 = EPHB2 (UniProt P29323); experiment: as above
FGFR1 = FGFR1 (UniProt P11362); experiment: as above
FGFR3 = FGFR3 (UniProt P22607); experiment: as above
Fer (mouse) = experiment: as above
Fes = Fes (UniProt P07332); experiment: as above
Fyn = Fyn (UniProt P06241); experiment: as above
Hck = Hck (UniProt P08631); experiment: as above
Jak2 = Jak2 (UniProt O60674); experiment: as above
MERTK = MERTK (UniProt Q12866); experiment: as above
c-Abl (mouse) = experiment: as above
c-Src = experiment: as above
Grb2 SH2 = Grb2 SH2 (UniProt P62993); experiment: SH2 binding enrichment of the phosphorylated peptide, bacterial display (enrichment ratio); higher = better substrate or ligand; peptides without Tyr show the background
SHP2-C SH2 = experiment: as above
c-Src SH2 = experiment: as above
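For SH2 binding enrichment of the phosphorylated peptide, bacterial display in this document: peptide library displayed on the E. coli surface as eCPX fusions, selected cells deep-sequenced, score is each peptide's frequency after selection divided by its frequency in the input.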
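For phosphorylation enrichment, bacterial display in this document: 11-residue human phosphosite peptides and single-mutation variants displayed on the E. coli surface, counted by deep sequencing, each peptide's frequency after selection divided by its frequency in the unselected input library; frequency after pTyr selection over input frequency; kinase dosed for 20-30% of maximal phosphorylation in three min.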

Chain of EPHB2 (P29323 whole entry, looked up): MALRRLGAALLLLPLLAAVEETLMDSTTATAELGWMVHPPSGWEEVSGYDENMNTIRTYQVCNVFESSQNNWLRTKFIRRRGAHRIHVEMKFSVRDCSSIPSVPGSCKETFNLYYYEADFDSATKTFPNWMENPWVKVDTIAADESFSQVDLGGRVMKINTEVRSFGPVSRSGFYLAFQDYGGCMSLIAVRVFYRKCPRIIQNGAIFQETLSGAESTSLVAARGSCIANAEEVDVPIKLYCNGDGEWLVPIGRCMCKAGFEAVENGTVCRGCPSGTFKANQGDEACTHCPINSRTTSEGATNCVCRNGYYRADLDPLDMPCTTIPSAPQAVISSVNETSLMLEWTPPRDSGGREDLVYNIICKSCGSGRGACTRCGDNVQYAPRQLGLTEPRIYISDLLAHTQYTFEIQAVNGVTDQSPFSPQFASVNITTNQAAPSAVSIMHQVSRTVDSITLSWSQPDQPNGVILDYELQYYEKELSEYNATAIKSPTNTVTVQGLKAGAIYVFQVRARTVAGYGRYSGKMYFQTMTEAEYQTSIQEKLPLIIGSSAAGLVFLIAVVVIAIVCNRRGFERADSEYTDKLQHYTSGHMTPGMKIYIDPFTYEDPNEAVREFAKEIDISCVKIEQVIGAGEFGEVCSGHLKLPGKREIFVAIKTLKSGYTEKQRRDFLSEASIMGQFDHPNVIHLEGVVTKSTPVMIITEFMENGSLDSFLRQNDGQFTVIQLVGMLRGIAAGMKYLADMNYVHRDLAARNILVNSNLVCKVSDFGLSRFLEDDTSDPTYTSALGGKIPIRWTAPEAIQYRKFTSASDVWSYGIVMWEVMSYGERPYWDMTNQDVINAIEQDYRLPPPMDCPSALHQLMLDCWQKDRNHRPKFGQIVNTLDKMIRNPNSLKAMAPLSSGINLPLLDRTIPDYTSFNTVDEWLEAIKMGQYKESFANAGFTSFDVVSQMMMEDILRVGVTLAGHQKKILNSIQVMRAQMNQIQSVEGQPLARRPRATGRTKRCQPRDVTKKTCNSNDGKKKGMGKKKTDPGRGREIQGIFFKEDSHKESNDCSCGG
Chain of Grb2 SH2 (P62993 whole entry, looked up): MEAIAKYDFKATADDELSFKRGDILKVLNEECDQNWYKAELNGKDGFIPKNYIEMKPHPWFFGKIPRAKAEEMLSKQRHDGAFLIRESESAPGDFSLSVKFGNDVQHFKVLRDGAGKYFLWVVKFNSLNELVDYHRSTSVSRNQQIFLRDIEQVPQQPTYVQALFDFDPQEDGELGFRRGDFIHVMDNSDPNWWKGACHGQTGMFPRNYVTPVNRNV
Chain of FGFR1 (P11362 whole entry, looked up): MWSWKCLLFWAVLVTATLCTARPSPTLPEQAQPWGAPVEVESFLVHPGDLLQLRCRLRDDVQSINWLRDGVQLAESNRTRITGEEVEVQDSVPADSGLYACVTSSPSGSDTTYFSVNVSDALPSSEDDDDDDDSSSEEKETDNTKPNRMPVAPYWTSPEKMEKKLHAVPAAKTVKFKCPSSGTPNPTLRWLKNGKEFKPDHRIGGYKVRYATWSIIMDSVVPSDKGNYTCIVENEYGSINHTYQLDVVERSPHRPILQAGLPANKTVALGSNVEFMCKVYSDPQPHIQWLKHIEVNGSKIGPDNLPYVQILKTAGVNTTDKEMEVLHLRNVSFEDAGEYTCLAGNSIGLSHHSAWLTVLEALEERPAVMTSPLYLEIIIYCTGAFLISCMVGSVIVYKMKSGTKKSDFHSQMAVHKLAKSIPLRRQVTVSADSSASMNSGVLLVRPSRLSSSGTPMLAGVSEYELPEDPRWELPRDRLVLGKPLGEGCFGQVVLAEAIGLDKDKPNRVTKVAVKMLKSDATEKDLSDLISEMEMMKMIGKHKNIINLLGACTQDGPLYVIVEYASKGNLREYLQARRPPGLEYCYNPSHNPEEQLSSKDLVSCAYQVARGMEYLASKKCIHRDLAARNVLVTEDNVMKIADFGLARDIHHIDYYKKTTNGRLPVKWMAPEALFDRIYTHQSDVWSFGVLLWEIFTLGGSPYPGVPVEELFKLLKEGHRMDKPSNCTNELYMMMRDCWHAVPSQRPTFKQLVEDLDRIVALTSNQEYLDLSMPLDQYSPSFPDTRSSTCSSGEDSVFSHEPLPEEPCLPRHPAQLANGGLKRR
Chain of FGFR3 (P22607 whole entry, looked up): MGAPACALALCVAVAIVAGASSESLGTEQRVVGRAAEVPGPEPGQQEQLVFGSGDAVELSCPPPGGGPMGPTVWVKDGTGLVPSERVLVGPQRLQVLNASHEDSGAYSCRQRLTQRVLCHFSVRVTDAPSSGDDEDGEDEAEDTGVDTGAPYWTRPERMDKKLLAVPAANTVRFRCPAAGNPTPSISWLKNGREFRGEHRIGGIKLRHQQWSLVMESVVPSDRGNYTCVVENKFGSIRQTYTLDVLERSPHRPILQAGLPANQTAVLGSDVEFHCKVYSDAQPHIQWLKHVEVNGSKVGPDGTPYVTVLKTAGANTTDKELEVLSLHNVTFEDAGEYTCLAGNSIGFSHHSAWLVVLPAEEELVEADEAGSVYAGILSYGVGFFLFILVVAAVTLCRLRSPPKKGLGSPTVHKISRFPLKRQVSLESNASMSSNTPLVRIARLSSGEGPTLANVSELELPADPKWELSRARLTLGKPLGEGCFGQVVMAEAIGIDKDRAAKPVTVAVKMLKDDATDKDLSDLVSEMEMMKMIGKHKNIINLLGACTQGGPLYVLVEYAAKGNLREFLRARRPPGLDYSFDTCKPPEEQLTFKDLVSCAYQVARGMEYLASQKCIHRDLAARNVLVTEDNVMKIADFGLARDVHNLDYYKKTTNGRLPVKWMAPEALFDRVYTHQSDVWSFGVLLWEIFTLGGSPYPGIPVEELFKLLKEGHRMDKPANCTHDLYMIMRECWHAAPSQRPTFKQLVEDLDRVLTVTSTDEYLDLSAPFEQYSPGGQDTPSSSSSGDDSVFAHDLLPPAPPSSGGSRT
Chain of Fyn (P06241 whole entry, looked up): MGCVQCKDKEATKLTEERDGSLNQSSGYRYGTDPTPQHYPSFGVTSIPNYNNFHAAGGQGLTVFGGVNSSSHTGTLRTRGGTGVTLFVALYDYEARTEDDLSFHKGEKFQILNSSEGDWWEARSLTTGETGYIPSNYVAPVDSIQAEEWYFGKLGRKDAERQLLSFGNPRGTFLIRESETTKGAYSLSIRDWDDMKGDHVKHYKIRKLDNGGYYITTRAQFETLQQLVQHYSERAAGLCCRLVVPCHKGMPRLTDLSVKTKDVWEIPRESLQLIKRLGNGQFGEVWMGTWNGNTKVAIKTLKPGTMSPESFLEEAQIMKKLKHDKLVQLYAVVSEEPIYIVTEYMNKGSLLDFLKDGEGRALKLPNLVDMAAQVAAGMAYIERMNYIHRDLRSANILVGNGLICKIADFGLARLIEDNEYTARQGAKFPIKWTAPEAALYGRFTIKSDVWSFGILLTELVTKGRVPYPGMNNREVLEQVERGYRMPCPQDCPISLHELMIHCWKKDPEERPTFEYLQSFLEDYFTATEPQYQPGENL
Chain of EPHB1 (P54762 whole entry, looked up): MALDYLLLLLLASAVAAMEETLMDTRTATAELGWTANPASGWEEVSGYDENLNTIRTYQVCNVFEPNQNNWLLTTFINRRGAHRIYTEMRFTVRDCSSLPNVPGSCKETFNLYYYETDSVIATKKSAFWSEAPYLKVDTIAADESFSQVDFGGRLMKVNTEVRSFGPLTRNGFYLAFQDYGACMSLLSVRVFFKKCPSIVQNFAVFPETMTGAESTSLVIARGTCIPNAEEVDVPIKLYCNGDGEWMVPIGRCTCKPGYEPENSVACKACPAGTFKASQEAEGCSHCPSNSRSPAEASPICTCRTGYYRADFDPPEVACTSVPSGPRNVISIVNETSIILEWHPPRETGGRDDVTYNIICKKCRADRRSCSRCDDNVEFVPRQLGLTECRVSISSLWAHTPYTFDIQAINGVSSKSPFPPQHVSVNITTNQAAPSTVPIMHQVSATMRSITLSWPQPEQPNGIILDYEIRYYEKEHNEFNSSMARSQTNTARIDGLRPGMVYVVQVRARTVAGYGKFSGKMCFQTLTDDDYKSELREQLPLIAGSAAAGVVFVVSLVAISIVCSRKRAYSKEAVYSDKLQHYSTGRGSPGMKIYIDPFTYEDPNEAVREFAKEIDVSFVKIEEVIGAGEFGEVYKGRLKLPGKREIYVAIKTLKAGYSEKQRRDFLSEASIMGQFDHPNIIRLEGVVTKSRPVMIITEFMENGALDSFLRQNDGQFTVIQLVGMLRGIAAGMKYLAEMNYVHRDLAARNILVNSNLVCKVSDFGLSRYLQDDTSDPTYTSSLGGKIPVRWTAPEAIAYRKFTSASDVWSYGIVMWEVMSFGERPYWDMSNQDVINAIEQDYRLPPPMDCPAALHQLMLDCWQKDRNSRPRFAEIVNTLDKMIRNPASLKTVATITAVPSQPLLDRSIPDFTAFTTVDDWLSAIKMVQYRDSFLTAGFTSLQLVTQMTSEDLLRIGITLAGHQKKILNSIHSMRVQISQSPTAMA
Chain of Hck (P08631 whole entry, looked up): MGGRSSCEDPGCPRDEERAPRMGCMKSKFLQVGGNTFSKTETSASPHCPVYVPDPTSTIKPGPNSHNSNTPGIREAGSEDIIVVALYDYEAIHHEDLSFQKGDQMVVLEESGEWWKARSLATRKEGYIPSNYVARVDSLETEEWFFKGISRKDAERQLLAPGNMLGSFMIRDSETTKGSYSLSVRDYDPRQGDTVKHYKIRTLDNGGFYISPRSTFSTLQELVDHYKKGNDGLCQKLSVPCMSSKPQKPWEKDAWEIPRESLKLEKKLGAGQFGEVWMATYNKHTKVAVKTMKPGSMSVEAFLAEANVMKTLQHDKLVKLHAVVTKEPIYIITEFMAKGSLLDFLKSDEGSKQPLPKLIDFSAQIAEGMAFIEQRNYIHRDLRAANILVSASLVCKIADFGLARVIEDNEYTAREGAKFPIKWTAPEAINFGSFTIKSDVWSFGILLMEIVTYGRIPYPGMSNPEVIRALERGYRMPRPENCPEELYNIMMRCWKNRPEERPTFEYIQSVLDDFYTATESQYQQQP

Sequence	phosphorylation enrichment (AncSZ)	phosphorylation enrichment (EPHB1)	phosphorylation enrichment (EPHB2)	phosphorylation enrichment (FGFR1)	phosphorylation enrichment (FGFR3)	phosphorylation enrichment (Fer (mouse))	phosphorylation enrichment (Fes)	phosphorylation enrichment (Fyn)	phosphorylation enrichment (Hck)	phosphorylation enrichment (Jak2)	phosphorylation enrichment (MERTK)	phosphorylation enrichment (c-Abl (mouse))	phosphorylation enrichment (c-Src)	SH2 binding enrichment (Grb2 SH2)	SH2 binding enrichment (SHP2-C SH2)	SH2 binding enrichment (c-Src SH2)
ETMNKYDLSGR [MYEF2_Y164]	0.667	0.383	0.391	0.421	0.498	0.422	0.696	0.434	0.448	0.731	0.633	0.507	0.398	0.912	0.639	0.44
EVESPYEVHDF [GIGYF2_Y1168_YF]	1.93	0.837	0.922	0.593	0.81	12.3	1.3	5.32	1.44	1.23	0.974	0.825	5.45	0.785	0.832	0.486
EVKAQYEDIAQ [KRT1_Y358]	1.22	0.546	0.539	0.593	0.748	0.761	1.26	0.556	0.69	1.06	0.435	0.774	0.516	1.15	0.64	11.6
EYGSGYPNDPK [RNASEH2A_Y210_D205E]	0.697	0.369	0.458	0.433	0.474	0.505	0.794	0.446	0.593	0.672	0.425	0.574	0.386	0.8	0.626	0.352
EYITRYIDSLK [PSMA7_Y110_A112D]	0.829	0.396	0.552	0.528	0.572	0.461	0.832	0.504	0.558	0.677	0.395	0.498	0.479	0.814	1.1	0.588
EYLQKYKGFKI [SYNE1_Y6953]	0.733	0.427	0.332	0.256	0.377	0.407	0.868	0.275	0.345	0.707	0.438	0.569	0.323	0.854	0.624	0.551
FADIAYNFRQG [PAH_Y166_H170Q_YF]	0.772	0.47	0.486	0.398	0.601	0.35	0.86	0.425	0.505	0.701	0.41	0.665	0.5	0.77	0.694	0.443
FAKSVYWENTL [NUP107_Y296_YF]	0.899	0.554	0.531	0.506	0.752	0.418	1.32	0.768	0.857	0.987	0.588	0.638	0.802	1.08	0.887	1.15
FASTGYVIAIQ [GRIN2B_Y762_G763V]	1.32	0.618	0.587	0.484	0.724	0.543	0.983	0.474	0.418	0.941	0.393	0.784	0.4	0.94	1.07	0.742
FCGFSYDDIPD [TMEM230_Y112_R108C_YF]	1.46	0.694	0.707	0.592	0.918	0.76	1.27	0.481	0.63	1.22	0.558	1.02	0.537	1.11	0.674	10.3
FDDDDYDTDFV [BLM_Y296]	1.26	0.662	0.549	0.586	0.78	0.531	1.14	0.563	0.538	0.958	0.509	0.767	0.494	0.803	0.702	0.555
FDDIACIRKTL [PIK3CA_Y1021_Y1021C]	0.911	0.603	0.629	0.497	0.756	0.424	1.03	0.374	0.448	0.787	0.386	0.661	0.378	0.668	0.471	0.51
FDDIAYIRKNL [PIK3CA_Y1021_T1025N]	0.864	0.409	0.506	0.432	0.56	0.361	0.852	0.403	0.5	0.494	0.416	0.483	0.379	0.768	0.759	0.556
FDNSVYQKTTE [LDLR_Y828_P826S]	0.924	0.487	0.488	0.51	0.641	0.374	0.913	0.515	0.668	0.673	0.432	0.701	0.657	0.808	0.559	0.768
FEGHSYSACTT [MMP9_Y241_R239H]	0.95	0.617	0.524	0.533	0.656	0.644	1.1	0.512	0.486	1.03	0.562	1.34	0.59	0.869	0.642	2.25
FESPRYLQVHI [FANCA_Y488]	0.928	0.782	0.461	0.534	0.61	0.676	1.04	0.408	0.564	0.867	0.495	0.949	0.411	0.912	0.781	0.648
FETSHYLASPD [CTNND2_Y1217_P1218L_YF]	0.791	0.878	0.635	0.568	0.752	0.502	0.824	0.557	0.513	0.73	0.664	0.658	0.523	0.923	0.904	0.473

Sequence	phosphorylation enrichment (AncSZ)	phosphorylation enrichment (EPHB1)	phosphorylation enrichment (EPHB2)	phosphorylation enrichment (FGFR1)	phosphorylation enrichment (FGFR3)	phosphorylation enrichment (Fer (mouse))	phosphorylation enrichment (Fes)	phosphorylation enrichment (Fyn)	phosphorylation enrichment (Hck)	phosphorylation enrichment (Jak2)	phosphorylation enrichment (MERTK)	phosphorylation enrichment (c-Abl (mouse))	phosphorylation enrichment (c-Src)	SH2 binding enrichment (Grb2 SH2)	SH2 binding enrichment (SHP2-C SH2)	SH2 binding enrichment (c-Src SH2)
FGYPGYQSKHY [TIMP3_Y177]	0.592	0.512	0.465	0.349	0.546	0.443	0.8	0.516	0.414	0.607	0.435	0.496	0.534	0.895	0.751	0.511
FHNSEYGELSE [FLT4_Y1337_Y1333H]	1.18	0.613	0.504	0.569	0.738	0.473	1.23	1.1	0.724	1.05	0.352	0.806	0.849	0.893	0.992	0.452
FHRQLYHKCTH [F12_Y58_YF]	0.601	0.855	0.495	0.387	0.442	0.398	0.76	0.371	0.425	0.623	0.385	0.502	0.375	1.03	0.933	0.916
FIGVTYKNEED [PDGFRA_Y993_YF]	1.02	0.565	0.484	0.584	0.629	0.49	1.11	0.432	0.451	0.92	0.336	0.649	0.491	1.31	0.571	0.555
FISLIYTNFEA [GSTP1_Y109_YF]	1.56	1.11	0.793	0.683	1.12	2	1.55	4.29	2.56	1.3	3.6	2.21	4.67	1.1	0.872	0.524
FKEIVYAVSSD [DCX_Y70_G67E]	1.32	0.455	0.644	0.723	0.809	0.587	1.4	3.23	2.25	0.921	1.93	13.7	3.74	0.913	0.656	0.742
FLAVEYHKPHI [IDS_Y225_G224E]	0.779	0.417	0.459	0.393	0.515	0.354	0.814	0.337	0.38	1.05	0.302	1.6	0.387	1.32	0.653	0.925
FLLTVYSIFSK [SGCE_Y38]	1.15	0.643	0.589	0.496	0.647	0.594	1.05	2.59	2.3	1.1	1.17	0.899	3.17	2.05	1.93	1.38
FLRKEYGGLNV [CBR3_Y81]	0.584	0.4	0.519	0.393	0.437	0.375	0.618	0.45	0.404	0.615	0.385	0.412	0.334	0.667	0.432	0.435
FPILNYKDIRK [CFAP221_Y798_M795I]	0.546	0.478	0.487	0.431	0.464	0.449	0.666	0.368	0.391	0.745	0.453	0.486	0.49	0.76	0.696	0.447
FPLAEYTEVKT [ALDH1A3_Y497_A493P_YF]	1.34	0.685	0.575	0.671	0.82	0.516	0.968	0.502	0.54	1.01	0.4	0.709	0.528	0.884	0.841	1.87
FPRAWYRRSIA [KIAA1109_Y4272]	0.693	0.394	0.468	0.394	0.381	0.473	0.55	0.405	0.413	0.689	0.473	0.552	0.477	0.801	0.339	0.462
FPSLPYSPVSS [CAMKK2_Y128_C123Y_YF]	0.789	0.452	0.445	0.539	0.592	2.1	0.707	0.479	0.59	0.526	0.489	0.507	0.457	0.857	0.863	0.672
FQKDVYNIPPS [NEDD9_Y177_D178N_YF]	0.613	0.437	0.411	0.47	0.468	0.371	0.572	2.54	1.31	1.75	0.883	0.525	2.21	1	0.913	0.479
FQKNSYSEELR [LMNA_Y211_I210S]	0.626	0.363	0.342	0.401	0.499	0.365	0.686	0.456	0.319	0.63	0.425	0.544	0.452	0.847	0.643	0.413
FQLPFYNMVPS [BMPR1A_Y458_YF]	0.788	0.65	0.773	1.21	0.936	1.45	0.811	1.05	1.07	0.666	2.69	0.582	1.06	0.952	0.652	1.97
